From patent US20110280809

Biological target: Bovine pancreatic trypsin inhibitor, reduced form, P00974

B1: GST-Pdia4 (protein)
chain: VAGAEGPDEDSSNRENAIEDEEEEEEEDDDEEEDDLEVKEENGVLVLNDANFDNFVADKDTVLLEFYAPWCGHCKQFAPEYEKIANILKDKDPPIPVAKIDATSASVLASRFDVSGYPTIKILKKGQAVDYEGSRTQEEIVAKVREVSQPDWTPPPEVTLVLTKENFDEVVNDADIILVEFYAPWCGHCKKLAPEYEKAAKELSKRSPPIPLAKVDATAETDLAKRFDVSGYPTLKIFRKGRPYDYNGPREKYGIVDYMIEQSGPPSKEILTLKQVQEFLKDGDDVIIIGVFKGESDPAYQQYQDAANNLREDYKFHHTFSTEIAKFLKVSQGQLVVMQPEKFQSKYEPRSHMMDVQGSTQDSAIKDFVLKYALPLVGHRKVSNDAKRYTRRPLVVVYYSVDFSFDYRAATQFWRSKVLEVAKDFPEYTFAIADEEDYAGEVKDLGLSESGEDVNAAILDESGKKFAMEPEEFDSDTLREFVTAFKKGKLKPVIKSQPVPKNNKGPVKVVVGKTFDSIVMDPKKDVLIEFYAPWCGHCKQLEPVYNSLAKKYKGQKGLVIAKMDATANDVPSDRYKVEGFPTIYFAPSGDKKNPVKFEGGDRDLEHLSKFIEEHATKLSRTKEEL
disulfide isomerase activity, fraction remaining (%) of the reduced BPTI: GST-Pdia4 showed disulfide isomerase activity as compared to GST protein in redox buffer as evidenced by a decrease in disulfide formation of bovine pancreatic trypsin inhibitor
